Results published in patent US20220242937A1 (CHANGCHUN GENESCIENCE PHARMACEUTICAL, published 2022).

Biological target: human Aβ antigen (human)
Assay: cell-based or functional assay

Chain of human Aβ antigen (human) (peptide, as listed by the source): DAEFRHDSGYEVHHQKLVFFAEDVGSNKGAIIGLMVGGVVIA

B1: 066-4.26.14 (antibody, V domains shown)
VH: EVKLVESGGGLVKPGGSLKLSCAASGFTFRSYAMSWVRQTPEKRLEWVASISTTSNTYYPDSVKGRFTTSRDNARNIVYLQMSSLRSDDTAMYYCGRGVITNQAWFAYWGQGTLVTVSA
VL: DIVLTQSPATLSVTPGDSVSLSCRASQSISNNLHWYQQKSHESPRLLIKYASQSISGIPSRFSGSGSGTDFTLSVNNVGTEDFGMYFCQQSNSWPLTFGAGTKLELK
- relative fluorescence intensity (ThT, Aβ polymerization; hIgG = 1.00): 0.7
- relative value of LDH release (SHSY5Y cells with Aβ; hIgG = 1.00): 1.2

B2: mouse-human chimeric antibody 066-4.26.14-chAb (antibody, human IgG1, kappa, V domains shown)
VH: EVKLVESGGGLVKPGGSLKLSCAASGFTFRSYAMSWVRQTPEKRLEWVASISTTSNTYYPDSVKGRFTTSRDNARNIVYLQMSSLRSDDTAMYYCGRGVITNQAWFAYWGQGTLVTVSA
VL: DIVLTQSPATLSVTPGDSVSLSCRASQSISNNLHWYQQKSHESPRLLIKYASQSISGIPSRFSGSGSGTDFTLSVNNVGTEDFGMYFCQQSNSWPLTFGAGTKLELKR
- relative fluorescence intensity (ThT, Aβ polymerization; hIgG = 1.00): 0.71
- relative value of LDH release (SHSY5Y cells with Aβ; hIgG = 1.00): 1.32

B3: 066-4.26.14H2L3 (antibody, V domains shown)
VH: EVQLVESGGGLVKPGGSLRLSCAASGFTFRSYAMSWVRQTPEKRLEWVASISTTSNTYYPDSVKGRFTTSRDNAKNSVYLQMSSLRAEDTAVYYCGRGVITNQAWFAYWGQGTTVTVSS
VL: DIVLTQSPDFQSVTPKEKVTISCRASQSISNNLHWYQQKPDQSPKLLIKYASQSISGIPSRFSGSGSGTDFTLTINSLEAEDAAAYFCQQSNSWPLTFGPGTKVEIK
- relative fluorescence intensity (ThT, Aβ polymerization; hIgG = 1.00): 0.67
- relative value of LDH release (SHSY5Y cells with Aβ; hIgG = 1.00): 1.42

B4: 066-4.26.14H5L3 (antibody, V domains shown)
VH: EVQLVESGGGLVQPGGSLRLSCVASGFTFRSYAMSWVRQAPGKGLEWVASISTTSNTYYPDSVKGRFTTSRDNSKNTVYLQMSSLRAEDTAVYYCGRGVITNQAWFAYWGQGTLVTVSS
VL: DIVLTQSPDFQSVTPKEKVTISCRASQSISNNLHWYQQKPDQSPKLLIKYASQSISGIPSRFSGSGSGTDFTLTINSLEAEDAAAYFCQQSNSWPLTFGPGTKVEIK
- relative fluorescence intensity (ThT, Aβ polymerization; hIgG = 1.00): 0.78
- relative value of LDH release (SHSY5Y cells with Aβ; hIgG = 1.00): 1.41

B5: 066-4.26.14H5L2 (antibody, V domains shown)
VH: EVQLVESGGGLVQPGGSLRLSCVASGFTFRSYAMSWVRQAPGKGLEWVASISTTSNTYYPDSVKGRFTTSRDNSKNTVYLQMSSLRAEDTAVYYCGRGVITNQAWFAYWGQGTLVTVSS
VL: DIVLTQSPATLSVSPGERATLSCRASQSISNNLHWYQQKPGQAPRLLIKYASQSISGIPARFSGSGSGTDFTLTISSLQSEDFAVYFCQQSNSWPLTFGGGTKVEIK
- relative fluorescence intensity (ThT, Aβ polymerization; hIgG = 1.00): 0.67
- relative value of LDH release (SHSY5Y cells with Aβ; hIgG = 1.00): 1.26

B6: 066-4.26.14H4L2 (antibody, V domains shown)
VH: EVQLVESGGGLVQPGGSLRLSCAASGFTFRSYAMSWVRQAPGKGLEWVASISTTSNTYYPDSVKGRFTTSRDNAKNSVYLQMSSLRDEDTAMYYCGRGVITNQAWFAYWGQGILVTVSS
VL: DIVLTQSPATLSVSPGERATLSCRASQSISNNLHWYQQKPGQAPRLLIKYASQSISGIPARFSGSGSGTDFTLTISSLQSEDFAVYFCQQSNSWPLTFGGGTKVEIK
- relative fluorescence intensity (ThT, Aβ polymerization; hIgG = 1.00): 0.7
- relative value of LDH release (SHSY5Y cells with Aβ; hIgG = 1.00): 1.3

B7: 066-4.26.14H5L1 (antibody, V domains shown)
VH: EVQLVESGGGLVQPGGSLRLSCVASGFTFRSYAMSWVRQAPGKGLEWVASISTTSNTYYPDSVKGRFTTSRDNSKNTVYLQMSSLRAEDTAVYYCGRGVITNQAWFAYWGQGTLVTVSS
VL: DIVLTQSPATLSVSPGERVTLSCRASQSISNNLHWYQQKSGQAPRLLIKYASQSISGIPSRFSGSGSGTDFTLTISSLQSEDFAVYFCQQSNSWPLTFGGGTQVEIK
- relative fluorescence intensity (ThT, Aβ polymerization; hIgG = 1.00): 0.68
- relative value of LDH release (SHSY5Y cells with Aβ; hIgG = 1.00): 1.37

B8: 066-4.26.14H2L2 (antibody, V domains shown)
VH: EVQLVESGGGLVKPGGSLRLSCAASGFTFRSYAMSWVRQTPEKRLEWVASISTTSNTYYPDSVKGRFTTSRDNAKNSVYLQMSSLRAEDTAVYYCGRGVITNQAWFAYWGQGTTVTVSS
VL: DIVLTQSPATLSVSPGERATLSCRASQSISNNLHWYQQKPGQAPRLLIKYASQSISGIPARFSGSGSGTDFTLTISSLQSEDFAVYFCQQSNSWPLTFGGGTKVEIK
- relative fluorescence intensity (ThT, Aβ polymerization; hIgG = 1.00): 0.62
- relative value of LDH release (SHSY5Y cells with Aβ; hIgG = 1.00): 1.41
